# Source: PMC6908968 (Cell, 2019)
# Positions count from the first letter of the chain named.
# T1: thermolysin-cleaved EBOV GP on Jurkat-GP cells (cleaved GP) (Zaire ebolavirus, Makona (GP1 core …, strain))
# T1 chain 1: not shown
# T1 chain 2: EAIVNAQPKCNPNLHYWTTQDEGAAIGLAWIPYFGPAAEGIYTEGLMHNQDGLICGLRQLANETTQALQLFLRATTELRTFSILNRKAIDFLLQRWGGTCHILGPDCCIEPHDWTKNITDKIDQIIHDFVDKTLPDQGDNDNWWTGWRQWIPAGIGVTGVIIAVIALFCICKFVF
# B1: 5.6.c2712 (antibody, V domains shown)
# VH: QVQLQESGPGLVKPSETLSLTCSVSGGSISSDYWSWIRQPPGKGLEWIGYIYYDGSTNFNPSLKSRVTISVDTSKNQLSLKLSSVTAADTAVYYCARVRRWIELGTGLGDWFDPWGQGTLVTVSS
# VL: SSELTQDPAVSVALGQTVRITCQGDSLRSYYASWHQLKPGQAPVVVIYGIHNRPSGIPDRFSGSSSGNTASLTITGAQAEDEADYYCSSRDSSGNHLVFGGGTKLTVL
# B2: 5.6.c2762 (antibody, V domains shown)
# VH: QLQLQESGPGLVRPSETLSLTCTVSGGSINTNVYYWGWIRQPPGKGLEWIGTIHYSGSTYYNPSVKSRVTISVDTSTNQFSLRLNSLTAADTAVYYCARLAYGSGWAGWFDPWGQGTLVTVSS
# VL: SSELTQDPAVSVALGQTVRITCQGDSLRVYYATWYQQKPGQAPVLVIYAKNSRPSGIPDRFSGSSSGNTASLTITGTQAEDEADYYCNSRDSSGKVWVFGGGTKLTVL
# B3: 5.6.c2687 (antibody, V domains shown)
# VH: QVQLMESGGGVVQPGRSLRLSCAASGFTFSSYGMHWVRQAPGKGLEWVAVIWNDGSNKYYADSVKGRFTISRDNSKNTLYLQMNSLRVEDTAVYYCARDSSAPAAIFYDAFDMWGQGTMVTVSS
# VL: EIVMTQSPATLSVSPGERATLSCRASQSINSNLAWYQQKPGQAPRLLIYGVSTRATGIPARFSGSGSGTEFTLTISSLQSEDFAVYYCQQYNNWWTFGQGTKVEIK
# B4: 5.6.c2636 (antibody, V domains shown)
# VH: QVQLVQSGAEVKKPGASVKVSCKASGYTFTDYYMHWVRQAPGQGLEWLGIIIPTGTLSYAQKFQGRVTMTSDTSTNTFYMELRSLRSEDTAVYFCAREKSRDFDWELFDYWGQGTLVTVSS
# VL: QSVLTQPPSASGTPGQRITISCSGSSSNIGNNAVSWYQQIPGMAPKLLIYSSNQRPSGVPDRFSGSKSGTSASLAISGLQSEDETDYYCAAWDDSLNGPVFGGGTKVTVL
# B5: 5.6.c2518 (antibody, V domains shown)
# VH: EVQLVESGGGVVQPGGSLKLSCAASGFTFDDHAMHWVRQAPGKGPEWVSLISWDGANSYYANSVRGRFTVSRDNSKNSLFLQMNSLRTEDTALYYCARDLHNYAFWSGYPDYWGRGTLVTVSS
# VL: DIQLTQFPSSLSASVGDRVVITCRASQSISSSLNWYQQKPGNAPQLLIYTVSSLYTGVPSRFSGSASGTDFTLTISSLRPEDFATYYCQQTHSVPYTFGQGTKLEIK
# B6: 5.6.c2685 (antibody, V domains shown)
# VH: EVQLVESGGGLVQPGGSLRLSCAASGFTFSRSWMNWVRQAPGKGLEWVANIKQDGSEKYYVDSVKGRFTISRDNAKNSLYLQMNSLRAEDTGVYYCAKATVTTELTFFYYYALDVWGQGTTVTVSS
# VL: EIVMTQSPATLSVSPGERATLSCRASQSINNNLAWYQQKPGQAPRLLISDASTRATGVPARFSGSGSGTEFTLTISSLQSEDSAVYHCQQYNTWPPFTFGGGTKVEIK
# B7: 5.6.c2670 (antibody, V domains shown)
# VH: QVQLEQWGAGLLKPSETLSLTCGVNGGSFSGSYWIWIRQSPGKGLEWIGEISHSGSTNSNPSLKSRVTISVDTSKNHFSLTLSSVTAADTAVYYCATSTLDSSSVFYYSYGLDVWGQGTTVTVSS
# VL: DIQMTQSPSSVSASVGDRVTITCRASQDISSWLAWYQQKPGRAPNLLIYAASSLLSGVPSRFSGSGSGTDFTLTISSLQPGDSATYYCQQGHSLPLTFGGGTKVEIR
# B8: 5.6.c2725 (antibody, V domains shown)
# VH: QVQLQESGPGLVKPSQTLSLTCTVSGGSISSGGYYWSWIRQHPGKGLEWIGYIYYSGSTYYNPSLKSRVSISAGTSKNQFSLKLSSVTAADTAVYYCARAYCGGDCYSLLYYYYGMDVWGQGTTVTVSS
# VL: QSALTQPASVSGSPGQSITISCTGTSSDVGGYNSVSWYQQHPGKAPKLMIYDVSNRPSGVSDRFSGSKSGNTASLTISGLQAEDEADYYCSSYTSSSTLVFGGGTKLTVL
# B9: 5.6.c2693 (antibody, V domains shown)
# VH: QVQVVESGGGVVQPGRSLRLTCATSGFTFRSYGMHWVRQAPGKGLEWVAGISYDGSNKYYADSVKGRFSISRDNSKNTVYLQMNSLRVEDTAVYYCANQLICVNGVCYKTTSVAGIDYWGQGTLVTVSS
# VL: DIQMTQSPSSLSASVGDRVTITCRASQDISNYLAWFQQKPGKAPKCLIYAASSLQSGVPSKFSGSGSGTDFTLTISSLQPEDFATYYCQQYKDYPLTFGPGTKVDVR
# B10: 5.6.c2724 (antibody, V domains shown)
# VH: QVQLQQLGAGLLKPSETLSLTCAVSGGSFSGYYWSWIRQSPGKGLEWIGEVNQSGNTNYNPSLKSRVTISPDTSKNQFSLKLSSVTAADTAVYYCARGLEDTALLADAFDIWGQGTLVTVSS
# VL: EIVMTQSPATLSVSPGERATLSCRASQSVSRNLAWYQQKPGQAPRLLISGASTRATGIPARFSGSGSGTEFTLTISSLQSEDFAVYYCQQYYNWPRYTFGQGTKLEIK
# B11: 5.6.c2569 (antibody, V domains shown)
# VH: QVQLQESGPGLVKPSGTLSLTCAVSGGSISSPNWWSWVRQSPEKGLEWIGEVFHSGSTNYNPSLKSRATISVDNSKNQFSLRLTSVTAADTAIYYCARDLGWLVHGYFDPWGQGILVTVSS
# VL: EIVLTQSPGTLSLSPGERATLSCRAGQSVSSSYVAWYQQKPGQAPRLLIYDTSSRATGIPDRFSGSGSGTDFTLTISRLEPEDFAVYYCQQYGTSRTWTFGQGTRVEIK
# B12: 5.6.c2517 (antibody, V domains shown)
# VH: QVQLQQWGAGLLKPSETLSLSCSVYPGSFSGYYWAWIRQPPGKGLEWIGEINHSGSTKYNPSLKSRVTISIDTSKNQLSLKMSSVTAADSAVYYCASLTRSSWFRAFDYWGQGTLVTVSS
# VL: QSALTQPASVSGSPGQSITISCTGSSSDIGGYDYVSWYQQHPGKAPKLMIFDVSDRPSGVSNRFSGSKSGNTASLTISGLQPEDEADYYCSSYTSISSSYVFGTGTKVTVL
# B13: 5.6.c2682 (antibody, V domains shown)
# VH: QVQLVESGGGVVQPGRSLRLSCAASGFTFSNYAMHWVRQAPGKGLEWVAVTSDDKDNRYYADSVKGRFIISRDNSKNTLYLQMNSLRAEDTAVYHCAKDFEVFSSIFNGAYDSWGQGTLVIVSS
# VL: EVVMTQSPATLSVSPGERATLSCRASQSVGFNLAWYQQKPGQAPRLLIYDASTRATGIPARFSGSGSGTEFTLTISSLQSGDFAVYYCQQYNNWPPYTFGQGTKLEIK
# B14: 5.6.c2526 (antibody, V domains shown)
# VH: QVQLVESGGGVVQPGGSLRLACAASGFTFSNSGLHWIRQAPGKGLEWMTVISHDGNNKYYADSVKGRFTISRDNSENMLYLQMNSLRPEDTAVYYCARDRIRYSDWGVYYYYNGMDVWGQGTTVTVSS
# VL: QSVLTQPPSVSAAPGQKVTISCSGSISNIGNHYVSWYKQLPGTAPKVLIYDNNKRPSGIPDRFSGSKSGTSATLGLTGLQTGDEADYFCGTWDSSLSVWVFGGGTKLTVL
# B15: 5.6.c2609 (antibody, V domains shown)
# VH: QVQLVESGGGVVQPGRSLRLSCAASGIAFSNYAMHWVRQAPGKGLEWVALISSDARDQYYADSVKGRFTISRDNSKSTLYLEMNSLTSEDTAIYYCASDTSSHYSSLLYNWFDSWGQGSLVTVSS
# VL: DIQMTQSPSSLSASVGDRVTITCRAIQSISTFLNWYQHKPGKAPKVLIYGASNLQSGVPSRFSGSGSGTDFTLTISSLQPEDFATYYCQQSYNTPFTFGPGTKVDIK
# B16: 5.6.c2686 (antibody, V domains shown)
# VH: QVQLQESGPGLVKPSGTLSLTCAVSGGSITSSDWWSWVRQTPGKGLEWIGQIYSGGMTDYNPSLKSRVTMSLDKSKNQFSVKLNSVTAADTAVYYCARHRLNAEMYCSGGSCYPADSNWFDPWGQGTLVTVSS
# VL: B15 VL with I26S, F32Y, H38Q, V46L, G50A, A51T, N53S, L73F, N93S
# B17: 5.6.c2633 (antibody, V domains shown)
# VH: EVQLVQSGGGLVQPGGSLTLSCAASGFTFTDHWIHWVRQAPGKGLEWVANVKPDGSEKYYVDSVKGRFTISRDNAKKSLSLQMNSLRADDTAVYYCARSQLEGLGDLFYYNFGLDVWGQGTTVTVSS
# VL: EIVMTQSPATLSVSPGERATLSCRASQSVNSNLAWYQQKPGQAPRLLIYGASTRATGIPARFSGRGSGTDFTLTISSLQSEDFALYYCQQYNTWPPLTFGGGTKVEIN
# B18: 5.6.c2692 (antibody, V domains shown)
# VH: QVTLRESGPALVKSTQTLTLTCTFSGFSLSTSGMCVSWIRQPPGKALEWLALIDWDDGKYYSTSLKTRLTISKGTSKNQVVLTMTNMDPVDTATYYCARIRYTSDWFYDAFDIWGQGTMVTVSS
# VL: B17 VL with I2T, K39R, Y49S, R65S, D70E, L85V, T93D, N108K
# B19: 5.6.c2644 (antibody, V domains shown)
# VH: QVQLVQSGAEVKKPGASVKVSCKASGYTFSNYGITWVRQAPGQGLEWMGWISAYNGNTKYAQKVQGRVTLSTDTSTSTAYMELRSLRSDDTAIYYCARDPGMITPGGVIEHWGQGTLVTVSS
# VL: DIQMTQSPSSLSASVGDRVTVTCRASQGISNYLAWYQQKPGKVPKLLIYAASTLHSGVPSRFSGSGSGTDFTLTISSLQPEDVATYVCHNYNNAPRTFGQGTKVEIK
# B20: 5.6.c2627 (antibody, V domains shown)
# VH: QVQLVQSGAEVKKPGSSVKVSCKASGGTFSTYGFIWVRQAPGQGLDWMGGIIPIFDKTNYGQRFQGRVTITADKSTSTVHMELSSLRSEDTAVYYCARCRSGFKDPSGYFYYAMDVWGQGTTVTVSS
# VL: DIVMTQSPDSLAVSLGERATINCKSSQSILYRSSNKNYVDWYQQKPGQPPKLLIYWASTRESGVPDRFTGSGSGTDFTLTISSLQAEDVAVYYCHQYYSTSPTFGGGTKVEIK
# Tests used:
# [1] = target: EBOV GP ectodomain residues 1-636 (GPec) (Zaire ebolavirus, strain  …, UniProt Q05320)
# [2] = target: T1, thermolysin-cleaved EBOV GP on …
Binder,binding result [1],binding result [2]
B1,binds,binds
B2,binds,binds
B3,binds,binds
B4,binds,binds
B5,binds,binds
B6,binds,binds
B7,binds,binds
B8,binds,binds
B9,binds,binds
B10,binds,binds
B11,binds,binds
B12,binds,binds
B13,binds,binds
B14,binds,binds
B15,binds,binds
B16,binds,binds
B17,binds,binds
B18,binds,binds
B19,binds,binds
B20,binds,binds
